Assay results taken from patent US20250299771A1.

Legend:
[1] = biological target: HLA-C*07:02/A*02:01 chimera of Example 2 (heavy chain with human β2m) (human)
[2] = biological target: HLA-C*07:02-A*02:01 chimera of Example 4 (heavy chain with human β2m) (human)

RYRPGTVAL (modifications not checked) [RYR peptide (…)]
Tm [1]: 48.3 °C | Tm [2]: 49.8 °C
